Results reported in doi:10.1101/2022.11.07.515376 (bioRxiv, 2022).

Tests used:
[1] = molecular target: the molecule itself; assay: AUC
[2] = molecular target: the molecule itself; assay: SEC
[3] = molecular target: the molecule itself; assay: ITC

B1: MSMEG_2027, full-length (as used in the solution studies) (enzyme)
chain: MTDAELSPTDWVREQTERILEQGTTDGVHVLDRPIVLFTTTGAKSGKKRYVPLMRVEENGKYAMVASKGGDPKHPSWYFNVKANPTVSVQDGDKVLPDRTARELEGEEREHWWKLAVEAYPPYAEYQTKTDRLIPVFIVE
Question: Which results are given for B1?
Answer: Kd [1]: ~8 µM; stoichiometry N [2]: 2; Kd [3]: ~1.2 µM
